Test results from article PMC8671415.
pKd: −log10 of the molar value.

Experiments:
[1] = biological target: RAGE peptide (Sino Biological), receptor for advanced glycation end products (UniProt Q15109); assay: SPR; RANK or RAGE (5 μg/ml in 10 mM sodium acetate, pH 5.5) immobilised on the sensor chip; AOPPs 350 to 1050 μg/ml injected, 1050 μg/ml RSA as vehicle; 25 °C, 30 μl/min; PlexArray HT A100
[2] = biological target: RANK peptide (Sino Biological), receptor activator of nuclear factor κ B (UniProt Q9Y6Q6); assay: as above
UniProt Q9Y6Q6, sequence (Q9Y6Q6 30-212): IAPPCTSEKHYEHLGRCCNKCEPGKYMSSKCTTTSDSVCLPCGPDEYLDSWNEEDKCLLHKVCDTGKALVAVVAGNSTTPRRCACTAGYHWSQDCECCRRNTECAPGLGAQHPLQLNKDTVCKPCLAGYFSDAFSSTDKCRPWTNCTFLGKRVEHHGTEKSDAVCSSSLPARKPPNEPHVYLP

UniProt Q15109, sequence (Q15109 23-342): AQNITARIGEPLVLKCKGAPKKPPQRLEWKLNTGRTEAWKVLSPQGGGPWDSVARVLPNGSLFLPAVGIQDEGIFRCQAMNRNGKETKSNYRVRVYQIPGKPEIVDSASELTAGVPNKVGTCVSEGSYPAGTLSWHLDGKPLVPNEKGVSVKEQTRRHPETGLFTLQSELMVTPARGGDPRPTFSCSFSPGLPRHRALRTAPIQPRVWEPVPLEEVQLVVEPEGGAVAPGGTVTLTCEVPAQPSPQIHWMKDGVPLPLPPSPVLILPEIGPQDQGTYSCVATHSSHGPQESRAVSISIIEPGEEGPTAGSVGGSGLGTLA

- pKd [1]: 5.87
- pKd [2]: 5.52
Substance: Advanced oxidation protein products (AOPPs), prepared from rat serum albumin with hypochlorous acid (from UniProt P02770 25-608)
